In the supplement of paper PMC9732359:
± gives the uncertainty stated by the source.

Assay: protein stability index of a GFP-peptide fusion (yeast GPS) (PSI 1-4); higher = more stable; sorted into four equal gates, so the index is relative within each strain
Outline: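 Tiled 17-residue peptides from yeast proteins were fused downstream of GFP on a plasmid that also expresses Cherry, and the pooled library was carried in yeast. Mid-log cultures grown in leucine-free medium were sorted into four equal gates by GFP/Cherry fluorescence ratio. Plasmids from each gate were PCR-amplified and Illumina-sequenced, and reads were assigned to strains by barcodes. Each peptide's protein stability index is the sum, over gates, of the gate's read frequency multiplied by its gate number.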

Row | Sequence | protein stability index (doa10∆) | protein stability index (pdr5∆) | protein stability index (san1∆) | protein stability index (ubr1∆)
1 | FPKIDSLAQNDCNSALD [RPN5] | 2.52 ± 0.062 | 2.64 ± 0.049 | 3.03 ± 0.05 | 2.93 ± 0.045
2 | VSHHATTFTHCEIHPSM [RPB2] | 3.12 ± 0.076 | 3.22 ± 0.069 | 2.46 ± 0.12 | 2.96 ± 0.062
3 | TIEVLDEVITEGQADID [POP7] | 2.94 ± 0.064 | 3.1 ± 0.061 | 3.06 ± 0.072 | 3.07 ± 0.049
4 | LAPTQLSAEYLVILKPD [SIN4] | 2.31 ± 0.11 | 2.74 ± 0.13 | 2.38 ± 0.12 | 2.38 ± 0.074
5 | ESWANQLTVCGAIIGWT [FAS2] | 1.13 ± 0.041 | 1.3 ± 0.038 | 1.2 ± 0.088 | 1.44 ± 0.037
6 | ANVNASAMPAPYMPYYY [DSN1] | 2.76 ± 0.06 | 2.88 ± 0.077 | 2.79 ± 0.059 | 2.65 ± 0.055
7 | DENKDDELVKLLLDNGF [SRP68] | 3.05 ± 0.11 | 3.4 ± 0.086 | 3.36 ± 0.12 | 3.31 ± 0.094
8 | DFVRKGGLQKGKLVVSQ [SIR3] | 3.14 ± 0.079 | 3.22 ± 0.091 | 2.75 ± 0.055 | 3.35 ± 0.077
9 | CFMHLLVQLFLWDSKEL [RPN3] | 1.23 ± 0.078 | 1.6 ± 0.064 | 1.61 ± 0.15 | 1.54 ± 0.15
10 | NLKYLDNSNVMTVKLES [RGR1] | 2.23 ± 0.18 | 1.87 ± 0.11 | 2.04 ± 0.19 | 2.66 ± 0.12
11 | RPSITEAMMLKEEGLQQ [MED1] | 3.41 ± 0.25 | 3.65 ± 0.2 | 3.16 ± 0.061 | 2.94 ± 0.21
12 | SPMLSISNLTQEQVQDY [FAS1] | 2.97 ± 0.058 | 2.97 ± 0.047 | 2.98 ± 0.05 | 3.09 ± 0.044
13 | VHNTVAAGNASSLPPGE [SNF5] | 2.82 ± 0.094 | 2.75 ± 0.071 | 2.94 ± 0.06 | 2.75 ± 0.077
14 | ASYAKIEIKISDPLTVF [SNU114] | 1.21 ± 0.15 | 2.66 ± 0.25 | – | 1.45 ± 0.089
15 | PKFGVEGLIRLDNLTED [DIS3] | 2.97 ± 0.074 | 2.86 ± 0.068 | 3.08 ± 0.043 | 3.07 ± 0.038
16 | TFEIPQAHEIVIPSYSK [SWI3] | 2.43 ± 0.095 | 2.37 ± 0.07 | 2.39 ± 0.065 | 2.36 ± 0.064
17 | TIKVVKRSMDAEQLGHA [RPP1] | 3.18 ± 0.067 | 3.28 ± 0.07 | 3.41 ± 0.042 | 3.38 ± 0.077
18 | KVDGKVRTDTTYPAGFM [RPS4A] | 3.41 ± 0.13 | 3.18 ± 0.13 | 2.97 ± 0.073 | 3.15 ± 0.11
19 | SEFLNVPFESLQGVTYP [YIL149C/MLP2] | 2.94 ± 0.086 | 2.56 ± 0.078 | 2.72 ± 0.091 | 2.96 ± 0.063

Row | Sequence | protein stability index (doa10∆) | protein stability index (pdr5∆) | protein stability index (san1∆) | protein stability index (ubr1∆)
20 | SAFKFIHTQLSEIKQQI [YJL039C/NUP192] | 2.33 ± 0.1 | 2.62 ± 0.087 | 2.82 ± 0.12 | 2.83 ± 0.061
21 | YFLHLSVFNAELLKLLN [YCS4] | 1.26 ± 0.053 | 1.61 ± 0.058 | 1.8 ± 0.099 | 1.51 ± 0.053
22 | SDSLDIAQGIDLVRDID [SRP72] | 3.29 ± 0.11 | 3.38 ± 0.088 | 3.09 ± 0.077 | 3.26 ± 0.1
23 | ILQILDQDELVQPPLDK [SWP82] | 2.58 ± 0.068 | 2.68 ± 0.11 | 2.62 ± 0.074 | 2.48 ± 0.11
24 | DLLVIDSHKRIPDMSKN [SNU114] | 2.99 ± 0.073 | 3.09 ± 0.073 | 2.93 ± 0.053 | 3.24 ± 0.056
25 | VKQYNKKWPQFYAAVQK [SIN4] | 1.49 ± 0.15 | 1.93 ± 0.1 | 1.55 ± 0.1 | 1.68 ± 0.047
26 | PIGRDGKLAKPRQLHNT [RPB2] | 2.89 ± 0.077 | 2.88 ± 0.068 | 2.67 ± 0.059 | 2.84 ± 0.081
27 | SPVQDWNLLRSLYIFFT [YML103C/NUP188] | 2.38 ± 0.079 | 1.71 ± 0.053 | 2.25 ± 0.069 | 1.95 ± 0.042
28 | PRETIPFLHLRKKTPAG [FAS2] | 2.73 ± 0.13 | 2.43 ± 0.1 | 2.63 ± 0.13 | 2.78 ± 0.094
29 | NGDEGDDENEPKRKRRL [YOR098C/NUP1] | 3.38 ± 0.11 | 3.24 ± 0.14 | 3.17 ± 0.083 | 3.06 ± 0.071
30 | VKPHDEGSKSHPFGHAL [RPL27A] | 2.95 ± 0.064 | 2.97 ± 0.053 | 2.88 ± 0.08 | 3.1 ± 0.047
31 | LTSQAPQTTQMFQSQSQ [YDL088C/ASM4] | 3.12 ± 0.11 | 3.16 ± 0.071 | 3.08 ± 0.046 | 3.06 ± 0.057
32 | IIPSRMGEAQTGANFDD [REC8] | 1.93 ± 0.089 | 2.16 ± 0.12 | 3.04 ± 0.25 | 2.74 ± 0.1
33 | LAKSKASLTAARTAANS [RPN6] | 2.5 ± 0.18 | 2.69 ± 0.12 | 2.83 ± 0.097 | 2.7 ± 0.051
34 | TFAQEKLNTFENDLLQE [SMC3] | 3.33 ± 0.18 | 3.26 ± 0.12 | 3.12 ± 0.13 | 2.81 ± 0.13
35 | PSRTRETATSERNASEV [GRR1] | 3.32 ± 0.15 | 3 ± 0.12 | 2.86 ± 0.091 | 2.84 ± 0.14
36 | SGCENITDKTIESIVNL [GRR1] | 2.81 ± 0.13 | 2.94 ± 0.099 | 1.54 ± 0.19 | 2.98 ± 0.078
37 | MSPFLRKVVKPSSLNSD [SRB4] | 2.41 ± 0.058 | 2.87 ± 0.061 | 2.03 ± 0.081 | 2.34 ± 0.044
38 | NNTTTTSTKPSFSFGAP [YOR098C/NUP1] | 3.26 ± 0.11 | 3.38 ± 0.1 | 3.04 ± 0.056 | 3.01 ± 0.076
